Data taken from publication doi:10.1101/2021.08.20.457118 (bioRxiv, 2021).

Molecular target: linear di-Ub (M1-linear from UbiQ) (UniProt P0CG47)
Test: SPR

binding result: binds
B1: His-tagged Ufd2p (enzyme)
chain: MTAIEDILQITTDPSDTRGYSLLKSEEVPQGSTLGVDFIDTLLLYQLTENEKLDKPFEYLNDCFRRNQQQKRITKNKPNAESLHSTFQEIDRLVIGYGVVALQIENFCMNGAFINYITGIVSNVNSYTDFLSQIIQRAILEGTALDLLNAVFPTLLEYCNKHVSHFDLNESVIYNNVLTIFELFVTFKPIAEIFTKIDGFFADYSCKPQDFERKTILGPILSLSPIEAAVAIRNYGDNLLRSKQQTAMIHESLQAEHKVVIDRLFFIVDKLVRGSLNSRTDMISYFAHIANKNHLRRADHPPFKELSSNGFMSNITLLLVRFSQPFLDISYKKIDKIDANYFNNPSLFIDLSGETRLNSDFKEADAFYDKNRKTADSKPNFISDCFFLTLTYLHYGLGGTLSFEEKMGSEIKALKEEIEKVKKIAANHDVFARFITAQLSKMEKALKTTESLRFALQGFFAHRSLQLEVFDFICGASTFLIRVVDPEHEFPFKQIKLPLIPDQIGVENVDNADFLRAHAPVPFKYYPEFVVEGPVNYSLYISKYQTSPIFRNPRLGSFVEFTTMVLRCPELVSNPHLKGKLVQLLSVGAMPLTDNSPGFMMDIFEHDELVNKNLLYALLDFYVIVEKTGSSSQFYDKFNSRYSISIILEELYYKIPSYKNQLIWQSQNNADFFVRFVARMLNDLTFLLDEGLSNLAEVHNIQNELDNRARGAPPTREEEDKELQTRLASASRQAKSSCGLADKSMKLFEIYSKDIPAAFVTPEIVYRLASMLNYNLESLVGPKCGELKVKDPQSYSFNPKDLLKALTTVYINLSEQSEFISAVAKDERSFNRNLFVRAVDILGRKTGLASPEFIEKLLNFANKAEEQRKADEEEDLEYGDVPDEFLDPLMYTIMKDPVILPASKMNIDRSTIKAHLLSDSTDPFNRMPLKLEDVTPNEELRQKILCFKKQKKEEAKHKASE
